Our source for the protein stability index values is the supplement of paper PMC10567573.

± gives the standard deviation.

A short description of this data set: protein stability index of a GFP-peptide fusion (GPS, HEK-293T) (PSI 1-6); higher = more stable. The following applies: c terminus: a fixed tail appended.
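Further: 24-mer peptide tiles fused after GFP, lentivirally expressed, FACS-sorted into six equal bins by GFP/DsRed ratio, decoded by Illumina sequencing, PSI is the read-weighted mean bin number.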

In the case of ASRTWCFYNTEDIKDWEDRFYLLL [PTGFR], the protein stability index by setting is: (treatment: DMSO) 2.15 ± 0.6; (treatment: MLN4924 1 uM, 8 h) 2.46 ± 0.38.
For ASRVSKVNDKRRKKSGEKEQHISK [KMT2E] the same measures were 4.69 ± 0.39 and 4.45 ± 0.38.
In turn, ASVSDEELKRRVAEELALEQAKKE [CHCHD3] showed a protein stability index (treatment: DMSO) of 5.76 ± 0.25 and a protein stability index (treatment: MLN4924 1 uM, 8 h) of 5.45 ± 0.49.
Regarding ATGLTSGLLSLLLPETLNSPLLET [SLC22A15], the protein stability index is, setting by setting: (treatment: DMSO) 2.2 ± 0.46; (treatment: MLN4924 1 uM, 8 h) 2.1 ± 0.23.
Consider ATQSHSISSSSFGAEPSAPGGGGS [RTN3], for which the protein stability index by setting is: (treatment: DMSO) 5.19 ± 0.23; (treatment: MLN4924 1 uM, 8 h) 5.19 ± 0.093.
For ATQTERRLDLAAVTLRRGLRSRAS [FAM189A2], the protein stability index worked out at 4.02 ± 0.24 (treatment: DMSO) and 4.41 ± 0.2 (treatment: MLN4924 1 uM, 8 h).
Turning to ATRSIQVDGKTIKAQIWDTAGQER [RAB11A], the protein stability index was 4.28 ± 0.33 (treatment: DMSO) and 4.37 ± 0.19 (treatment: MLN4924 1 uM, 8 h).
As for AVIAQQRRKPDPPKDENERSTCNV [DLC1], the protein stability index is 5.24 ± 0.21 (treatment: DMSO) and 5.12 ± 0.19 (treatment: MLN4924 1 uM, 8 h).
Turning to AVIGNFLYVVGGQSNYDTKGKTAV [KLHL13], the protein stability index was 2.38 ± 0.73 (treatment: DMSO) and 2.24 ± 0.67 (treatment: MLN4924 1 uM, 8 h).
For AVIRWMHSFNFVLSANLHGGAVVA [CPN1], the protein stability index by setting is: (treatment: DMSO) 2.95 ± 0.71; (treatment: MLN4924 1 uM, 8 h) 2.88 ± 0.19.
Regarding AVQKTDEGHPFKAYLELEITLSQE [RTN1], the protein stability index reads like this: (treatment: DMSO) 2.24 ± 0.24; (treatment: MLN4924 1 uM, 8 h) 2.56 ± 0.17.
For AVSESYSAPGACEEPTERGNLEVG [FBXO34], the protein stability index reads like this: (treatment: DMSO) 5.49 ± 0.12; (treatment: MLN4924 1 uM, 8 h) 5.57 ± 0.26.
For the sequence AYEFADRDEVRFFKGNKYWAVQGQ [MMP1], the protein stability index (treatment: DMSO) worked out at 2.54 ± 0.45 and the protein stability index (treatment: MLN4924 1 uM, 8 h) was 2.74 ± 0.61.
In the same order, the values of AYEFNPELVLVSAGFDAARGDPLG [HDAC6] are 3.11 ± 0.58 and 3.58 ± 0.23.
As for CDFKIDAGDRFLEALGFSWHDTCF [PDLIM7], the protein stability index by setting is: (treatment: DMSO) 2.6 ± 0.5; (treatment: MLN4924 1 uM, 8 h) 2.47 ± 0.46.
With CDKYPHESQLPEEWENNRESLIVF [CPXM2], the protein stability index came out at 3.68 ± 0.11 (treatment: DMSO) and 3.44 ± 0.25 (treatment: MLN4924 1 uM, 8 h).
CEEQKCEEEVFPLAMNYLDRFLAG [CCND2]: the protein stability index is, setting by setting: (treatment: DMSO) 3.82 ± 0.17; (treatment: MLN4924 1 uM, 8 h) 4.05 ± 0.28.
In the case of CETTLFALRMATWNQILDPWVYIL [PTGFR], the protein stability index by setting is: (treatment: DMSO) 2.89 ± 0.16; (treatment: MLN4924 1 uM, 8 h) 2.93 ± 0.6.
With CFSTGLSRRVLLTNVVTGHRQSFG [DCAF4], the protein stability index was 2.1 ± 0.18 (treatment: DMSO) and 2.38 ± 0.21 (treatment: MLN4924 1 uM, 8 h).
For CGVILYILLVGYPPFWDEDQHRLY [CAMK2A], the protein stability index was found to be 2.98 ± 0.6 (treatment: DMSO) and 3.24 ± 0.91 (treatment: MLN4924 1 uM, 8 h).
CIHDHHCGSQLSSTKGSRSNLSTR [NETO1]: the protein stability index is 3.04 ± 0.52 (treatment: DMSO) and 3.33 ± 0.37 (treatment: MLN4924 1 uM, 8 h).
CKESSPMPVICGPEENYPSLQMSS [NANOGP8]: the protein stability index is, setting by setting: (treatment: DMSO) 3.65 ± 0.27; (treatment: MLN4924 1 uM, 8 h) 3.74 ± 0.25.
For the sequence CLKKFNARRKLKGAILTTMLATRN [CAMK2A], the protein stability index worked out at 3.21 ± 0.15 (treatment: DMSO) and 3.32 ± 0.34 (treatment: MLN4924 1 uM, 8 h).
With CLVCGDVASGYHYGVASCEACKAF [ESRRA], the protein stability index turned out to be 3.96 ± 0.32 (treatment: DMSO) and 3.94 ± 0.23 (treatment: MLN4924 1 uM, 8 h).
In the case of CPRPCRESAFKLSTGTSRWPSAKS [SCNN1D], the protein stability index came out at 2.7 ± 0.62 (treatment: DMSO) and 2.65 ± 0.45 (treatment: MLN4924 1 uM, 8 h).
Turning to CQEQIEALLESSLRQAQQNMDPKA [CCND1], the protein stability index reads like this: (treatment: DMSO) 4.85 ± 0.079; (treatment: MLN4924 1 uM, 8 h) 4.63 ± 0.19.
With CQMFLGKTEAEIAHIALETLEGHQ [FLOT1], the protein stability index runs as follows: (treatment: DMSO) 3.36 ± 0.43; (treatment: MLN4924 1 uM, 8 h) 3.37 ± 0.13.
Take CTFSLTHPANRSCRETGSFLDLFR [SLC22A15]: the protein stability index by setting is: (treatment: DMSO) 2.31 ± 0.33; (treatment: MLN4924 1 uM, 8 h) 2.14 ± 0.45.
Regarding CVLADRLDCADALLKAGADVNKTD [INVS], the protein stability index by setting is: (treatment: DMSO) 4.4 ± 0.48; (treatment: MLN4924 1 uM, 8 h) 4.17 ± 0.42.
Turning to DAKDELEERLERCMSIVTSMTAGV [INTS3], the protein stability index is 4.13 ± 0.3 (treatment: DMSO) and 4.09 ± 0.33 (treatment: MLN4924 1 uM, 8 h).
For DCCQVSAPNRFFQKLNVFKNFIGL [NLN] the same measures were 2.09 ± 0.51 and 2.17 ± 0.21.
For DDATCRLYDLRADREVAIYSKESI [GNB5], the protein stability index was 3.51 ± 0.24 (treatment: DMSO) and 3.4 ± 0.17 (treatment: MLN4924 1 uM, 8 h).
With DDEGWLHSGDLGQLDGLGFLYVTG [ACSBG2], the protein stability index reads like this: (treatment: DMSO) 2.66 ± 0.33; (treatment: MLN4924 1 uM, 8 h) 2.54 ± 0.42.
In the same order, the values of DDGSQDPEVLDRESRDRPSCAPSA [PWWP2B] are 5.43 ± 0.17 and 5.21 ± 0.13.
DDKTDKRIFTFICKDSESNKHLCY [GULP1] gave a protein stability index (treatment: DMSO) of 2.47 ± 0.45 and a protein stability index (treatment: MLN4924 1 uM, 8 h) of 2.51 ± 0.26.
Turning to DEIENLLDSDHRELIGDYSKAFLL [CDC25B], the protein stability index runs as follows: (treatment: DMSO) 3.55 ± 0.36; (treatment: MLN4924 1 uM, 8 h) 3.41 ± 0.53.
